In general, Kd refers to a measure of binding affinity in units of concentration. The low end stands for higher affinity, the high end for lower affinity.

Consider 14 molecules from patent publication US20260258115A1.

Residue numbers refer to the chain shown, from its start.

B1: ADI-41180 (antibody, V domains shown)
VH: EVQLVQSGGGLVKPGGSLRLSCAASGFTFIDYYMSWIRQAPGKGLEWVSSISGGSTYTTYADSVKGRFTISRDNGKNSLYLQMDSLRAEDTAVYYCARLGGYSYYMDVWGKGTTVTVSS
VL: QPVLTQPPSVSGAPGQRVTISCTGSSSNIGAGYDVHWYQHLPGAAPKLLIYDNTNRPSGIPDRFSGSKSGTSASLAITGLQAEDEADYYCQSYDSSLDWVFGGGTKVTVL
B2: ADI-41198 (antibody, V domains shown)
VH: EVQLVQSGGVVIQPGGSLRLSCAASGFSFDEYLMHWVRQLPGKGLEWVALISWHGDITYYADSVKGRFTISRDNSRYSLYLQMNSLRSDDTALYYCVKDGWIEGAFNHTFGIGYYFENWGQGTLVTVSS
VL: DIVLTQTPSSLSASVGDRVTITCQASQDINNCLNWYQQKPGKAPEVLIFDASNLETGVPLRFSGSGSGTHFTLTISSLQPEDIATYYCQQHENVPLTFGGGTKVEIK
B3: ADI-41193 (antibody, V domains shown)
VH: EVQLVESGGGLVKPGMSLRLSCAASGFRFSDHYMNWIRQAPGKGLEWVSYISSSSTYTDYTDSVKGRFTISRDNSKNSVYLQMNSLRAEDTAIYYCARVAPIRHNGDYIDYWGQGTTVTVSS
VL: NFMLTQPPSASGTPGQRVTISCTGSSSNIGAGYDVHZYQQIPGTAPKLLIYGNNNRPSGVPDRFSGSKSGTSASLAITGLQTEDEADYYCQSYDRGLSGRVFGTGTKVTVL
B4: ADI-41165 (antibody, V domains shown)
VH: EVQLVETGAEVKKPGESLKISCKGSGYSFTSYWIGWVRQMPGKGLEWMGIIYPGDSDTRYSPSFQGQVTISADKSISTAYLQWSSLKASDTAMYYCARRYDYIDIWGQGTMVTVSS
VL: DIRVTQSPSSLSASVGDRVTITCQASQDISNYLNWYQQKPGKAPKLLIYDASNLETGVPSRFSGSGSGTDFTFTISSLQPEDIATYYCQQYDNLAHITFGPGTKVEIK
B5: ADI-36681 (antibody, V domains shown)
VH: EVQLVESGAEVKKPGESLKISCKASGYSFTRYWIGWVRQMPGKGLEWMGIIFPGDSDTRYCPSFEGQVTISADRSINTAYLQWSSLKASDSAMYYCVTLYTDYDYGAPDHWGQGTLVTVSS
VL: DIVLTQSPATLSVSPGERATLSCRASQSLSGDLAWYQQKPGQAPRLLIYATSTRATGIPARFSGSGSGAEFTLTISSLQSEDFAVYYCQQYYDWPLLTFGPGTKVEIK
B6: ADI-36671 (antibody, V domains shown)
VH: EVQLLESGGGLVKPGGSLRLSCAASGFTFSGYYMTWIRQAPEKGLEWVSYISGGSTYTNYADSVRGRFTISRDNARNSLYLQMNSLRAEDTAVYYCARDGGYGIGPLYWGQGSLVTVSS
VL: QPVLTQPPSVSGAPGQRVTISCTGSSSNIGAPFDVHWYQQLPGTAPKPLIYGNSNRPSGVPDRFSGSKSGTSASLAITGLQAEDEADYYCQSYDSSLGGYVFGTGTKLTVL
B7: ADI-41204 (antibody, V domains shown)
VH: EVQLLESGGGLVKPGGSLRLSCAASGFTFSSYSMNWVRQAPGKGLEWVSSISAGSSYIYYADSVKGRFTISRDNAKNSLYLQMNSLRAEDTAVYYCARVPSYETTPYFDYWGQGTLVTVSS
VL: B6 VL with P2S, A31S, P32G, F33Y, V35L, P48L, G52V, G98S, L108V
B8: ADI-41168 (antibody, V domains shown)
VH: EVQLVETGGGVVQPGRSLRLSCAASGFTFSSYGMHWVRQAPGKGLEWVAVISYDGSNKYYADSVKGRFTISRDNSKNTLYLQMNSLRTEDTAVYYCAKGGGYYYYYMDVWGKGTTVTVSS
VL: QPVLTQPASVSGSPGQSITISCTGTSSDVGGYNYVSWYQQHPGKAPKLMIYGVNNRPSGVSNRFSGSKSGNTASLTISGLQGEDEADYYCNSYRSGITVVFGGGTKLTVL
B9: ADI-36679 (antibody, V domains shown)
VH: QVQLVQSGAEVKKPGESLKISCKGSGYSFRSYWIAWVRQMPGKGLEWMGTIFPGDSDVTYSPSFQGQVTISVDKSTSTAYLQWGSLKASDTAIYYCARRYDYIDFWGQGTLVTVSS
VL: DIQMTQSPSSLSASVGDRVTITCQASQDIINHLNWYQQKPGKAPKLLIYDASNLHPGVPSRFSGSGSGTYFTFTISSLQPDDFATYYCQQYDFLAHITFGPGTKVDIK
B10: ADI-41188 (antibody, V domains shown)
VH: QVQLQQWGAGLLKSSETLSLTCAVYGGSFSGYYWSWIRQSPGKGLEWIGEINHSGSANYNPSLKNRVTISRDTSKNQFSLWLSSVTAADTAVYYCARTSRSPEPDNYYYYMDVWGRGTTVTVSS
VL: QSVLTQPPSVSGAPGQRVSISCTGSSSDIGAGYDVHWYQQFPGTAPKLLMYANNNRPSGVPDRFSGSRSGTSASLAITGLQAEDEADYYCQSYDSNLDVVVFGGGTKLTVL
B11: ADI-41157 (antibody, V domains shown)
VH: EVQLVESGPGLVKPSETLSLTCTVSGGSISTYYWSWIRQPPGKGLEWIGYIYYTGSTNYNPSLKSRVTISLDTSKNQFSLKLSSVSAADTAFYYCARSPPVPGTRSWFDPWGQGTLVTVSS
VL: SPGLTQPQSAFGTPGQRVTISCFGSSSNIGRNHIYWYQQVPGTAPKLLIYRNNQRPSGVPDRFFGSKFGTSASLAISGVRSEDEADYFCAAWDDSLSGPVFGGGTKLTVL
B12: ADI-41199 (antibody, V domains shown)
VH: QVQLVESGGGLVKPGGSLRLSCGASGFTFPDYYMSWIRQAPGKGLEWLSYISSSSSFTDYADSVKGRFTISRDNAKKSLYLQMNSLRAEDTAVYYCARVRADYVGNSRIHFDYWGQGTLVTVSS
VL: DIVMTQSPVTLSVSPGERATLSCRASQSLNGYLAWYQQKPGQAPRLLIYGASTRATEPGWDTSGRGSGTEFTLTISSLQSEDFAVYYCQQYNDWPFTFGQGTRLEIK
B13: ADI-41147 (antibody, V domains shown)
VH: EVQLVESGGGLVKPGGSLRLSCAASGFTLSGYYMSWVRQAPGKGLEWISYISGGSTYTNYADSVNGRFTISRDNAKNSLYLQMDSLRAEDTAVYYCARLEYGDYGPYYLGLWGRGTLVTVSS
VL: QSVLTQPPSVSGAPGQRVTISCTGTSSNIGAGYDVHWYQKLPGTAPKLLIYANNNRPSGVPDRFSGSKSGTSASLAITGLQAEDEADYYCQSYDTSLSAHYVFGTGTKLTVL
B14: ADI-36680 (antibody, V domains shown)
VH: QVTLKESGAELRKPGESLKISCKASGYRFTNYWIGWVRQMPGKGLEWMGVIYPGDSDTKYSPSFQGQVTMSADKSINTAYLQWSSLKASDTAIYYCVSLFGDYDYGALDYWGQGTLVTVSS
VL: ETTLTQSPATLSMSPGERATLSCRASQSVGRNLAWYQQKPGQAPRLLIYGASIRATGILARFSGSGSGTEYTLTISSLQPEDFAVYYCQQYHDWPSFTFGPGTKVDIK

The first assay addresses RSV prefusion F (preF), DS-Cav1 (Respiratory Syncytial Virus). Briefly: BLI, IgG on anti-human IgG sensor, 100 nM antigen. A general note: Biolayer interferometry detects binding as a change in optical thickness at a sensor tip.
B1 had a Kd of 0.47 nM.

For B2, the Kd was 0.756 nM.

As for B3, the Kd stood at 0.74 nM.

The molecule B4 registered a Kd of 2.4 nM.

For B5, the dissociation constant (Kd) amounted to 1.2 nM.

Turning to B6, the Kd worked out at 0.728 nM.

B7 registered a Kd of 0.545 nM.

On to B8, for which the Kd came out at 133 nM.

In turn, B9 showed a Kd of 0.878 nM.

On to B10, for which the Kd was determined as 0.224 nM.

Consider B11, for which the Kd came out at 0.507 nM.

B12 returned a Kd of 1.73 nM.

The molecule B13 returned a Kd of 0.467 nM.

With B14, the Kd came to 0.719 nM.

The target in a further assay is Respiratory Syncytial Virus fusion glycoprotein (RSV F) on RSV-A2 virus (Respiratory Syncytial Virus subtype A (RSV-A2)). Briefly: cell-based or functional assay.
B1: the Neutralization IC50 (RSV subtype A) turned out to be 0.07 µg/mL.

In the case of B2, the Neutralization IC50 (RSV subtype A) turned out to be 0.32 µg/mL.

Molecule B3 displayed a Neutralization IC50 (RSV subtype A) of 0.07 µg/mL.

Molecule B4 had a Neutralization IC50 (RSV subtype A) above 25 µg/mL.

Regarding B5, the Neutralization IC50 (RSV subtype A) worked out at 0.01 µg/mL.

Turning to B6, the Neutralization IC50 (RSV subtype A) was found to be 0.01 µg/mL.

In turn, B7 had a Neutralization IC50 (RSV subtype A) of 0.06 µg/mL.

B8 showed a Neutralization IC50 (RSV subtype A) above 25 µg/mL.

On to B9, for which the Neutralization IC50 (RSV subtype A) came to 0.01 µg/mL.

Take B10: the Neutralization IC50 (RSV subtype A) was 0.15 µg/mL.

The molecule B11 yielded a Neutralization IC50 (RSV subtype A) of 0.22 µg/mL.

On to B12, for which the Neutralization IC50 (RSV subtype A) was 0.23 µg/mL.

Turning to B13, the Neutralization IC50 (RSV subtype A) is 0.06 µg/mL.

The molecule B14 displayed a Neutralization IC50 (RSV subtype A) of 0.01 µg/mL.
